Measured values from the MegaScale stability set (Tsuboyama et al. 2023).

B1: 5KPH (parent)
chain: EEKRQVKQVAKEKLLEQSPNSKVQVRRVQKQGNTIRVELELRTNGKKENYTVEVERQGNTWTVKRITRT
B2: EEHEE_rd3_0130 (parent)
chain: TKIIVNGKTFTAPTEEEAQKIAEKLAKKAGLTVHKKNGTFELK

Variants of: B1
Assay: folding stability dG (cDNA display proteolysis); higher = more stable
Settings: PBS, room temperature

Folding stability dG [kcal/mol], by site and new letter:
R4: I 3.04, D 3.98, C 3.57, A 3.86, H 3.79, E 4.22, F 3.64, G 3.38
K3: F 4.65, D 4.41, V 4.72, H 4.2, G 3.73, E 4.84, W 4.88, R 4.07, T 4.31, N 4.25, P 3.01, Y 4.74, S 4.17, Q 4.19, M 4.84, A 4.28, C 4.21
E1: Q 3.64, F 3, C 3.69, M 3.33, N 3.37, D 3.52, A 3.75, V 3.38, R 3.25, L 3.06, Y 2.92, I 2.88, W 2.91, S 3.56, P 3.19, K 3.85, G 3.49, H 3.61, T 3.46
E2: R 3.19, C 3.69, M 3.58, D 3.9, Q 3.9, A 3.63, G 3.24, Y 3.08, F 3.16, N 3.28, W 4.05, P 2.94, L 3.66, H 3.5, K 2.91, I 3.93, T 3.74, V 3.73, S 3.47

Variants of: B2
Assay: as above
Settings: PBS, room temperature

Folding stability dG [kcal/mol], by site and new letter:
G38: A -0.621, Q -0.217, K -0.088, Y 0.009, P 0.071, W -0.047, D 0.488, C 0.297, N 0.509, T -0.511, E 0.033, L -0.199, M -0.52, H -0.107, S -0.804, F 0.05, R -0.474
F40: D 0.04, Q 0.083, M 0.218, T -0.035, N 0.021, R -0.061, I 0.784, C 0.982, E 0.251, Y 0.608, W 0.271, V 0.436, P 0.146, G -0.038, A -0.34, S 0.04, K -0.039, L 0.724, H 0.087
N37: S -0.174, G 0.697, A 0.339, R -0.324, F -0.371, P 0.201, K 0.391, I -0.193, V -0.477, M 0.06, C 1.05, T -0.324, Q 0.281, D 0.873, H -0.068, E 0.63, Y -0.556, L 0.216
L42: M 0, Y 0.019, I 0.782, N 0.089, A 0.214, H 0.251, S 0.186, P 0.076, K 0.146, W 0.069, Q 0.021, R -0.081, V 0.79, E 0.201, T 0.203, D 0.274, G 0.249, F -0.203
L31: W 0.742, Y 0.657, A -0.168, I -0.35, K -0.636, V -0.031, M 0.895, N -0.814, H -0.13, E -0.89, F 0.713, G -0.504, C -0.1, Q -0.255, S -0.591, T -0.366, D -0.475, P -0.624, R -0.423
E41: V 1.09, M 0.498, I 1.48, Y 1.85, L 0.903, H 0.56, T -0.004, C 1.19, P 0.028, K -0.978, W 1.45, R -0.631, F 1.45
